Experiment [1] addresses human FcγRIIIA (CD16A), variant at 158 not stated (human) (UniProt P08637). Nature of the experiment: cell-based or functional assay. Also on record: unit not given beside the values.
The target in another experiment is human FcγRIIb (human) (UniProt P31994). The experiment can be described thus: flow cytometry on CHO cells expressing human FcγRIIb; antibody as dimeric complex with PE-conjugated Fab'2 anti-human Fab'2. For orientation: A flow cytometer gives signals particle by particle.
Experiment [2] concerns the target human FcγRIIIa 158F variant (human) (UniProt P08637). Nature of the experiment: flow cytometry titration on CHO cells expressing human FcγRIIIa-158F.
In the next experiment the target is mouse FcγRIIb (mouse) (UniProt P08101). Nature of the experiment: ELISA, recombinant mouse FcγRIIb coated on the plate. A general note: ELISA stands for enzyme-linked immunosorbent assay.
In experiment [3] the target is human FcγRIIIa (158V variant) (human) (UniProt P08637). Nature of the experiment: flow cytometry titration on CHO cells expressing human FcγRIIIa-158V.
The next experiment addresses mouse FcγRIV (mouse). The experiment can be described thus: ELISA, recombinant mouse FcγRIV coated on the plate.

Where only a bound is given, the exact number is not on record here.

As to ESK1 (antibody), the EC50 of reverse signaling through FcγRIIIA (CD16A): NFAT-luciferase reporter in Jurkat cells with RMF-pulsed T2 cells in experiment [1] worked out at 0.88.
The substance “ESKM having 100% reduced fucose content relative to ESK1 wildtype IgG1 (GlymaxX technology, CHO cells) (antibody)” showed an EC50 of reverse signaling through FcγRIIIA (CD16A): NFAT-luciferase reporter in Jurkat cells with RMF-pulsed T2 cells in experiment [1] of 0.17.
Turning to “ESKM (produced in MAGE 1.5 CHO cells, no detectable fucose or galactose) (antibody)”, in the experiment with human FcγRIIb (human), the reduced affinity (against normally glycosylated ESK1) was 50%. The substance further registered a fold higher affinity (against normally glycosylated ESK1) in experiment [2] of 3.5 fold. Also, the affinity as a fraction of that of ESK1 with mouse FcγRIIb (mouse) was found to be 0.5 fold. Moreover, in experiment [3], the higher affinity (against normally glycosylated ESK1) was 80%. For the same substance, the higher affinity (against ESK1) in the experiment with mouse FcγRIV (mouse) turned out to be 51%.
In experiment [1], “ESK1 containing D265A/P329A mutations in the Fc domain (antibody)” showed an EC50 of reverse signaling through FcγRIIIA (CD16A): NFAT-luciferase reporter in Jurkat cells with RMF-pulsed T2 cells above 10000.

These data come from patent WO2015070078A1.
